Tests used:
[1] = test system: TALE tetramer library CTTC (repeats 1-4 varied) (synthetic (Xanthomonas TALE scaffold)); assay: ELISA; conditions: mean of 132 library clones, SE 0.07
[2] = test system: TALE tetramer library TCAT (repeats 1-4 varied) (synthetic (Xanthomonas TALE scaffold)); assay: ELISA; conditions: mean of 44 library clones, SE 0.22
[3] = test system: TALE tetramer library ATAC (repeats 5-8 varied) (synthetic (Xanthomonas TALE scaffold)); assay: ELISA; conditions: mean of 43 library clones, SE 0.06
[4] = test system: TALE tetramer library ATTG (repeats 5-8 varied) (synthetic (Xanthomonas TALE scaffold)); assay: ELISA; conditions: mean of 131 library clones, SE 0.05
[5] = test system: TALE tetramer library CAGA (repeats 5-8 varied) (synthetic (Xanthomonas TALE scaffold)); assay: ELISA; conditions: mean of 146 library clones, SE 0.02
[6] = test system: TALE tetramer library CAGC (repeats 5-8 varied) (synthetic (Xanthomonas TALE scaffold)); assay: ELISA; conditions: mean of 137 library clones, SE 0.02
[7] = test system: TALE tetramer library CCTG (repeats 5-8 varied) (synthetic (Xanthomonas TALE scaffold)); assay: ELISA; conditions: mean of 90 library clones, SE 0.03
[8] = test system: TALE tetramer library TACA (repeats 5-8 varied) (synthetic (Xanthomonas TALE scaffold)); assay: ELISA; conditions: mean of 85 library clones, SE 0.06
[9] = test system: TALEN R2+17 (synthetic (Xanthomonas TALE scaffold)); assay: cell_activity; conditions: K562, partner L+17 or L*+17, cold shock

## CATAGTCCCCTCTTCATCCTCCTCGGTGTAGTTTTCACAGTCAGTCCACACGTC (double strand) [CTTC target]
[1]
  binding signal (fraction of canonical control): 0.55

## CATAGTCCCCTTCATATCCTCCTCGGTGTAGTTTTCACAGTCAGTCCACACGTC (double strand) [TCAT target]
[2]
  binding signal (fraction of canonical control): 1.03

## CATAGTCCCCTTGACATACTCCTCGGTGTAGTTTTCACAGTCAGTCCACACGTC (double strand) [ATAC target]
[3]
  binding signal (fraction of canonical control): 0.56

## CATAGTCCCCTTGACATTGTCCTCGGTGTAGTTTTCACAGTCAGTCCACACGTC (double strand) [ATTG target]
[4]
  binding signal (fraction of canonical control): 0.37

## CATAGTCCCCTTGACCAGATCCTCGGTGTAGTTTTCACAGTCAGTCCACACGTC (double strand) [CAGA target]
[5]
  binding signal (fraction of canonical control): 0.18

## CATAGTCCCCTTGACCAGCTCCTCGGTGTAGTTTTCACAGTCAGTCCACACGTC (double strand) [CAGC target]
[6]
  binding signal (fraction of canonical control): 0.03

## CATAGTCCCCTTGACCCTGTCCTCGGTGTAGTTTTCACAGTCAGTCCACACGTC (double strand) [CCTG target]
[7]
  binding signal (fraction of canonical control): 0.2

## CATAGTCCCCTTGACTACATCCTCGGTGTAGTTTTCACAGTCAGTCCACACGTC (double strand) [TACA target]
[8]
  binding signal (fraction of canonical control): 0.5

## CCATACAGTCAGTATCAAT (double strand) [CCR5 +17 target, right half]
[9]
  activity: > 85 % indels

— patent US20150307561
